Where a chain is given by its changes, count along the chain named. Values belong to the binder of their own block, whether it stands above or below them.
Legend:
[1] = molecular target: T1, human PD1 on cells (Jurkat cells expressing human PD1; activated human T cells) (human, UniProt Q15116 25-288); experiment: cell-based or functional assay
[2] = molecular target: T1, human PD1 on cells (Jurkat cells …); experiment: cell-based or functional assay; remark: listed apart in the source
[3] = molecular target: T1, human PD1 on cells (Jurkat cells …); experiment: cell-based or functional assay; remark: listed apart in the source
[4] = molecular target: T2, human TfR on cells (Jurkat cells; activated human T cells) (human, UniProt P02786 1-760); experiment: flow cytometry, Jurkat cells (WT, PD-1 low, PD-1 high), 2 h on ice, detection with biotinylated Cy5 (Median APC)
T2 construct: also called Transferrin receptor; CD71

[5] = molecular target: T1, human PD1 on cells (Jurkat cells …); experiment: cell-based or functional assay; remark: listed apart in the source
[6] = molecular target: T1, human PD1 on cells (Jurkat cells …); experiment: cell-based or functional assay; remark: listed apart in the source

T1 sequence (Q15116 25-288 limits assumed): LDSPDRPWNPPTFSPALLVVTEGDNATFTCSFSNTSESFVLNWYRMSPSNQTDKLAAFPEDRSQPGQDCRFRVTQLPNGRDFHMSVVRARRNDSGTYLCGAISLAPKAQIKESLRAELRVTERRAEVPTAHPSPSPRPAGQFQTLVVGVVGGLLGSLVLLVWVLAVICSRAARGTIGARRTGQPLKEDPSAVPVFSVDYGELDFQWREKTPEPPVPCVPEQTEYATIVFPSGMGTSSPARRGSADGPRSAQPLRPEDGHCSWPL
T2 sequence (P02786 whole entry): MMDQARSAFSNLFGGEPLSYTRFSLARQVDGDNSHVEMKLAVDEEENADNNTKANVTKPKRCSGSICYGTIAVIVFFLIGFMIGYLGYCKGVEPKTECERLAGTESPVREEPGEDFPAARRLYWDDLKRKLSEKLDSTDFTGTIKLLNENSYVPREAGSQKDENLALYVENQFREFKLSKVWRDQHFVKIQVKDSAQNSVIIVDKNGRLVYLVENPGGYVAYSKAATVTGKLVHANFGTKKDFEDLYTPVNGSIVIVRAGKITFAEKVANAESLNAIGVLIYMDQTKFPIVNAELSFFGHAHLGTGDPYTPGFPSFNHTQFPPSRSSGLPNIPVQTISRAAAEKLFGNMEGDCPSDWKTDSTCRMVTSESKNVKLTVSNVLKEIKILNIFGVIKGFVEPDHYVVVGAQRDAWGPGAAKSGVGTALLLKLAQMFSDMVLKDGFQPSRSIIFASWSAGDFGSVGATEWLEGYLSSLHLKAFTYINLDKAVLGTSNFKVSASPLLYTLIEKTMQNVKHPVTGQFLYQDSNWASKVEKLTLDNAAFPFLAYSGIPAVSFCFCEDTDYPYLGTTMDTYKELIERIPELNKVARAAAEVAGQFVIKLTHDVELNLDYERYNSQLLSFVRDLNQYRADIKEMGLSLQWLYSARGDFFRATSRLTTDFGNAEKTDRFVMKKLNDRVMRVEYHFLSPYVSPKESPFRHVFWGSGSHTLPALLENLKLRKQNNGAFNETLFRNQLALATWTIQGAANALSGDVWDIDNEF

B2: bispecific 2+1 CrossMab 8157 (PD1-0103-0312/TfR(51A165) TCB-format) (bispecific antibody, human IgG1, kappa, L234A L235A)
light 1: EVQLLESGGGLVQPGGSLRLSCAASGFSFSSYTMSWVRQAPGKGLEWVATISGGGRDIYYPDSVKGRFTISRDNSKNTLYLQMNSLRAEDTAVYYCVLLTGRVYFALDSWGQGTLVTVSSASVAAPSVFIFPPSDEQLKSGTASVVCLLNNFYPREAKVQWKVDNALQSGNSQESVTEQDSKDSTYSLSSTLTLSKADYEKHKVYACEVTHQGLSSPVTKSFNRGEC
light 2: QIVLTQSPAIMSASPGEKVTVTCSASSSIRYMHWYQQKPGTSPKRWIYDTSELASGVPARFSGSGSGTSYSLTINSMEAEDAATYYCHQRSSYPFTFGGGTKLEIKRTVAAPSVFIFPPSDRKLKSGTASVVCLLNNFYPREAKVQWKVDNALQSGNSQESVTEQDSKDSTYSLSSTLTLSKADYEKHKVYACEVTHQGLSSPVTKSFNRGEC
heavy 1: DIVMTQSPDSLAVSLGERATINCKASESVDTSDNSFIHWYQQKPGQSPKLLIYRSSTLESGVPDRFSGSGSGTDFTLTISSLQAEDVAVYYCQQNYDVPWTFGQGTKVEIKSSASTKGPSVFPLAPSSKSTSGGTAALGCLVKDYFPEPVTVSWNSGALTSGVHTFPAVLQSSGLYSLSSVVTVPSSSLGTQTYICNVNHKPSNTKVDKKVEPKSCDGGGGSGGGGSEVQLQQSGPELVKPGASVKMSCKASGYTFTSYVMHWVKQKPGQGLEWIGYVNPYNDDTKYNEKFRGKATLTSDKSSSTAYMELSSLTSEDSAVYYCARSYYYYSMDNWGQGTSVTVSSASTKGPSVFPLAPSSKSTSGGTAALGCLVEDYFPEPVTVSWNSGALTSGVHTFPAVLQSSGLYSLSSVVTVPSSSLGTQTYICNVNHKPSNTKVDEKVEPKSCDKTHTCPPCPAPEAAGGPSVFLFPPKPKDTLMISRTPEVTCVVVDVSHEDPEVKFNWYVDGVEVHNAKTKPREEQYNSTYRVVSVLTVLHQDWLNGKEYKCKVSNKALGAPIEKTISKAKGQPREPQVCTLPPSRDELTKNQVSLSCAVKGFYPSDIAVEWESNGQPENNYKTTPPVLDSDGSFFLVSKLTVDKSRWQQGNVFSCSVMHEALHNHYTQKSLSLSP
heavy 2: not shown
Fold activity vs. control (EC50 of Granzyme B, mMLR), control PD1-0103-0312 [1]: 6.6 fold vs PD1-0103-0312
EC50 (pM) of Granzyme B production, mMLR [2]: 12 pM
Fold activity vs. control (EC50 of Granzyme B, mMLR), control 8159 [3]: 16.3 fold vs 8159

B4: bispecific CrossMab 8017 (Pembrolizumab/1026) (bispecific antibody, human IgG1, kappa, L234A L235A)
heavy 1: QSMQESGPGLVKPSQTLSLTCTVSGFSLSSYAMSWIRQHPGKGLEWIGYIWSGGSTDYASWAKSRVTISKTSTTVSLKLSSVTAADTAVYYCARRYGTSYPDYGDASGFDPWGQGTLVTVSSASTKGPSVFPLAPSSKSTSGGTAALGCLVEDYFPEPVTVSWNSGALTSGVHTFPAVLQSSGLYSLSSVVTVPSSSLGTQTYICNVNHKPSNTKVDEKVEPKSCDKTHTCPPCPAPEAAGGPSVFLFPPKPKDTLMISRTPEVTCVVVDVSHEDPEVKFNWYVDGVEVHNAKTKPREEQYNSTYRVVSVLTVLHQDWLNGKEYKCKVSNKALGAPIEKTISKAKGQPREPQVCTLPPSRDELTKNQVSLSCAVKGFYPSDIAVEWESNGQPENNYKTTPPVLDSDGSFFLVSKLTVDKSRWQQGNVFSCSVMHEALHNHYTQKSLSLSP
light 1: AIQLTQSPSSLSASVGDRVTITCRASQSISSYLAWYQQKPGKAPKLLIYRASTLASGVPSRFSGSGSGTDFTLTISSLQPEDFATYYCQQNYASSNVDNTFGGGTKVEIKRTVAAPSVFIFPPSDRKLKSGTASVVCLLNNFYPREAKVQWKVDNALQSGNSQESVTEQDSKDSTYSLSSTLTLSKADYEKHKVYACEVTHQGLSSPVTKSFNRGEC
heavy 2: not shown
light 2: QVQLVQSGVEVKKPGASVKVSCKASGYTFTNYYMYWVRQAPGQGLEWMGGINPSNGGTNFNEKFKNRVTLTTDSSTTTAYMELKSLQFDDTAVYYCARRDYRFDMGFDYWGQGTTVTVSSASVAAPSVFIFPPSDEQLKSGTASVVCLLNNFYPREAKVQWKVDNALQSGNSQESVTEQDSKDSTYSLSSTLTLSKADYEKHKVYACEVTHQGLSSPVTKSFNRGEC
EC50 (pM) of Granzyme B production, mMLR [2]: 121 pM
Fold activity vs. control (EC50 of Granzyme B, mMLR), control PD1-0103-312 [5]: 1.92 fold vs PD1-0103-312
Fold activity vs. control (EC50 of Granzyme B, mMLR), control 8019 [6]: 1510 fold vs 8019

B5: bispecific CrossMab 8018 (Pembrolizumab/51A165) (bispecific antibody, human IgG1, kappa, L234A L235A)
heavy 1: EVQLQQSGPELVKPGASVKMSCKASGYTFTSYVMHWVKQKPGQGLEWIGYVNPYNDDTKYNEKFRGKATLTSDKSSSTAYMELSSLTSEDSAVYYCARSYYYYSMDNWGQGTSVTVSSASTKGPSVFPLAPSSKSTSGGTAALGCLVEDYFPEPVTVSWNSGALTSGVHTFPAVLQSSGLYSLSSVVTVPSSSLGTQTYICNVNHKPSNTKVDEKVEPKSCDKTHTCPPCPAPEAAGGPSVFLFPPKPKDTLMISRTPEVTCVVVDVSHEDPEVKFNWYVDGVEVHNAKTKPREEQYNSTYRVVSVLTVLHQDWLNGKEYKCKVSNKALGAPIEKTISKAKGQPREPQVCTLPPSRDELTKNQVSLSCAVKGFYPSDIAVEWESNGQPENNYKTTPPVLDSDGSFFLVSKLTVDKSRWQQGNVFSCSVMHEALHNHYTQKSLSLSP
light 1: B2 light 2
heavy 2: not shown
light 2: B4 light 2
EC50 (pM) of Granzyme B production, mMLR [2]: 139 pM
Fold activity vs. control (EC50 of Granzyme B, mMLR), control PD1-0103-312 [5]: 5.97 fold vs PD1-0103-312
Fold activity vs. control (EC50 of Granzyme B, mMLR), control 8019 [6]: 4720 fold vs 8019

The next lines start with the values.

Fold activity vs. control (EC50 of Granzyme B, mMLR), control PD1-0103-0312 [1]: 7.83 fold vs PD1-0103-0312
EC50 (pM) of Granzyme B production, mMLR [2]: 25.8 pM
Fold activity vs. control (EC50 of Granzyme B, mMLR), control 8158 [3]: 4.44 fold vs 8158
B1: bispecific 2+1 CrossMab 8156 (PD1-0103-0312/TfR(51A165) BBB-format) (bispecific antibody, human IgG1, kappa, L234A L235A)
light 1: B2 light 1
light 2: B2 light 2
heavy 1: DIVMTQSPDSLAVSLGERATINCKASESVDTSDNSFIHWYQQKPGQSPKLLIYRSSTLESGVPDRFSGSGSGTDFTLTISSLQAEDVAVYYCQQNYDVPWTFGQGTKVEIKSSASTKGPSVFPLAPSSKSTSGGTAALGCLVKDYFPEPVTVSWNSGALTSGVHTFPAVLQSSGLYSLSSVVTVPSSSLGTQTYICNVNHKPSNTKVDKKVEPKSCDKTHTCPPCPAPEAAGGPSVFLFPPKPKDTLMISRTPEVTCVVVDVSHEDPEVKFNWYVDGVEVHNAKTKPREEQYNSTYRVVSVLTVLHQDWLNGKEYKCKVSNKALGAPIEKTISKAKGQPREPQVCTLPPSRDELTKNQVSLSCAVKGFYPSDIAVEWESNGQPENNYKTTPPVLDSDGSFFLVSKLTVDKSRWQQGNVFSCSVMHEALHNHYTQKSLSLSPGKGGGGSGGGGSEVQLQQSGPELVKPGASVKMSCKASGYTFTSYVMHWVKQKPGQGLEWIGYVNPYNDDTKYNEKFRGKATLTSDKSSSTAYMELSSLTSEDSAVYYCARSYYYYSMDNWGQGTSVTVSSASTKGPSVFPLAPSSKSTSGGTAALGCLVEDYFPEPVTVSWNSGALTSGVHTFPAVLQSSGLYSLSSVVTVPSSSLGTQTYICNVNHKPSNTKVDEKVEPKSCD
heavy 2: not shown

binding result [4]: binds
B3: TfR/Nada/anti-Biotin control antibody 9903 (bispecific antibody, human IgG1, kappa, L234A L235A)
heavy 1: not shown
light 1: B2 light 2 with R122E, K123Q
heavy 2: EVQLVESGGGLVQPGGSLRLSCAASGFSIAGTAIHWVRQAPGKGLEWVASISPGGGSTAYADSVKGRFTISADTSKNTAYLQMNSLRAEDTAVYYCSRSGGSGASAMDYWGQGTLVTVSSASVAAPSVFIFPPSDEQLKSGTASVVCLLNNFYPREAKVQWKVDNALQSGNSQESVTEQDSKDSTYSLSSTLTLSKADYEKHKVYACEVTHQGLSSPVTKSFNRGECDKTHTCPPCPAPEAAGGPSVFLFPPKPKDTLMISRTPEVTCVVVDVSHEDPEVKFNWYVDGVEVHNAKTKPREEQYNSTYRVVSVLTVLHQDWLNGKEYKCKVSNKALGAPIEKTISKAKGQPREPQVCTLPPSRDELTKNQVSLSCAVKGFYPSDIAVEWESNGQPENNYKTTPPVLDSDGSFFLVSKLTVDKSRWQQGNVFSCSVMHEALHNHYTQKSLSLSPGKGGGGSGGGGSDIQMTQSPSSLSASVGDRVTITCRASGNIHNYLSWYQQKPGKVPKLLIYSAKTLADGVPSRFSGSGSGTDFTLTISSLQPEDVATYYCQHFWSSIYTFGCGTKLEIKRGGGGSGGGGSGGGGSGGGGSQVQLVQSGAEVKKPGSSVKVSCKSSGFNNKDTFFQWVRQAPGQCLEWMGRIDPANGFTKYAQKFQGRVTITADTSTSTAYMELSSLRSEDTAVYYCARWDTYGAAWFAYWGQGTLVTVSS
light 2: DIQMTQSPSSLSASVGDRVTITCRASQDVGSGVAWYQQKPGKAPKLLIGSASGLYSGVPSRFSGSRSGTDFTLTISSLQPEDFATYYCQQSASGGSTFGQGTKVEIKSSASTKGPSVFPLAPSSKSTSGGTAALGCLVKDYFPEPVTVSWNSGALTSGVHTFPAVLQSSGLYSLSSVVTVPSSSLGTQTYICNVNHKPSNTKVDKKVEPKSC
notes: monovalent for TfR; also called αTfR/Nada; Nada/αTfR

Reference: patent US20250215103A1 (Hoffmann-La Roche, published 2025)
